Values quoted from earlier work in paper PMC7156917.

Columns and labels:
[1] = molecular target: CXCR4 (Homo sapiens) (UniProt P61073); assay: SPR
[2] = molecular target: CCR5 (Homo sapiens) (UniProt P51681); assay: equilibrium binding assay
Sequence of UniProt P51681 (P51681 whole entry): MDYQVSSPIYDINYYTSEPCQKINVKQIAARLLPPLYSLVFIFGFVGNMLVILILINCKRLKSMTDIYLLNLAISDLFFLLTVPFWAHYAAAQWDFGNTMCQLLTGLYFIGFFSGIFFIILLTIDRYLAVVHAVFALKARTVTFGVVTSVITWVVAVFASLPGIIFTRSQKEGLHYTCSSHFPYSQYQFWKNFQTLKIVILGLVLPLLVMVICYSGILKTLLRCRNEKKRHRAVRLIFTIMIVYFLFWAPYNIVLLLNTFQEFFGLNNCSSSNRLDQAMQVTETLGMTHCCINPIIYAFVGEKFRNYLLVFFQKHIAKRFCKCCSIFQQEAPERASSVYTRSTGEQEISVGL

Sequence of UniProt P61073 (P61073 whole entry): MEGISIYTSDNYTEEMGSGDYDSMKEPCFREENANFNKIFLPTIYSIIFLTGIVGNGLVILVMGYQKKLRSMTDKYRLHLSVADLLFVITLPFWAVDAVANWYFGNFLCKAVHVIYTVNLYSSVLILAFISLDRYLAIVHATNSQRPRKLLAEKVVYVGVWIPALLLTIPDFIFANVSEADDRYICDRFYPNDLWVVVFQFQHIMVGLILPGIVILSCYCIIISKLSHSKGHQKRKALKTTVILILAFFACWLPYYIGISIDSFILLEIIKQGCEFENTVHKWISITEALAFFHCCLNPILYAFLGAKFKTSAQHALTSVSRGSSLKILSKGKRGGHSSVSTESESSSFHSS

For “HIV Env gp120 gp120 (from UniProt O70902)”, which Kd [1] is on record?
Its Kd is 500 nM.

And the Kd [2]?
Its Kd is 5 nM.
